Measured values from paper PMC11915586.

What was measured:
[1] = biological target: Hsp90 from Saccharomyces cerevisiae (Hsp82) with D61C, CpK at position 452 and a C-terminal coiled-coil motif, labelled with Atto 550 / Atto 647N and DNA oligonucleotide (Saccharomyces cerevisiae) (UniProt P02829); test: optical tweezers (single-molecule force spectroscopy); dye-labeled Hsp90 dimer tethered at position 452 of both monomers between two beads by 0.5 kbp DNA handles; constant velocity 500 nm s^-1; no nucleotide; 172 unfolding traces
[2] = biological target: Hsp90 from Saccharomyces cerevisiae (Hsp82) with D61C, CpK at position 452 and a C-terminal coiled-coil motif, labelled with Atto 550 / Atto 647N and DNA oligonucleotide (Saccharomyces cerevisiae) (UniProt P02829); test: optical tweezers (single-molecule force spectroscopy); dye-labeled Hsp90 dimer tethered at position 452 by 2.5 kbp DNA handles; constant velocity 500 nm s^-1; 2 mM AMP-PNP, incubated 30 min at 21°C; 26 traces
[3] = biological target: Hsp90 from Saccharomyces cerevisiae (Hsp82) with D61C, CpK at position 452 and a C-terminal coiled-coil motif, labelled with Atto 550 / Atto 647N and DNA oligonucleotide (Saccharomyces cerevisiae) (UniProt P02829); test: optical tweezers (single-molecule force spectroscopy); dye-labeled Hsp90 dimer tethered at position 452 of both monomers between two beads by 2.5 kbp DNA handles; constant velocity 500 nm s^-1; no AMP-PNP; 147 unfolding traces

dissociation force, C-terminal dimer dissociation [1]: 16.8 pN
dissociation force, C-terminal dimer dissociation [2]: 10.7 pN
force of N-terminal dimer opening [2]: 8.8 pN
dissociation force, C-terminal dimer dissociation [3]: 16.5 pN
Substance: Hsp90 from Saccharomyces cerevisiae (Hsp82) with D61C, CpK at position 452 and a C-terminal coiled-coil motif, labelled with Atto 550 / Atto 647N and DNA oligonucleotide (from UniProt P02829 1-709) (natural protein)
